Literature values in US20200069786A1, “COMPOSITION AND PROCESS FOR PREPARING VACCINE” (TREOS BIO ZRT., priority 2018, published 2020).
Like-named read-outs stand apart in the source and are kept apart here.

B1: XAGE-3 (protein, UniProt Q8WTP9 1-111, looked up)
X antigen family member 3: MIWRGRSTYRPRPRRSVPPPELIGPMLEPGDEEPQQEEPPTESRDPAPGQEREEDQGAAETQVPDLEADLQELSQSKTGGECGNGPDDQGKILPKSEQFKMPEGGDRQPQV
B2: PEPP2 (protein, UniProt Q9BQY4 1-288, looked up)
Rhox homeobox family member 2: MEPPDQCSQYMTSLLSPAVDDEKELQDMNAMVLSLTEEVKEEEEDAQPEPEQGTAAGEKLKSAGAQGGEEKDGGGEEKDGGGAGVPGHLWEGDLEGTSGSDGNVEDSDQSEKEPGQQYSRPQGAVGGLEPGNAQQPNVHAFTPLQLQELERIFQREQFPSEFLRRRLARSMNVTELAVQIWFENRRAKWRRHQRALMARNMLPFMAVGQPVMVTAAEAITAPLFISGMRDDYFWDHSHSSSLCFPMPPFPPPSLPLPLMLLPPMPPAGQAEFGPFPFVIVPSFTFPNV
B3: SPAG9 (protein, UniProt O60271 1-1321, looked up)
C-Jun-amino-terminal …: MELEDGVVYQEEPGGSGAVMSERVSGLAGSIYREFERLIGRYDEEVVKELMPLVVAVLENLDSVFAQDQEHQVELELLRDDNEQLITQYEREKALRKHAEEKFIEFEDSQEQEKKDLQTRVESLESQTRQLELKAKNYADQISRLEEREAELKKEYNALHQRHTEMIHNYMEHLERTKLHQLSGSDQLESTAHSRIRKERPISLGIFPLPAGDGLLTPDAQKGGETPGSEQWKFQELSQPRSHTSLKVSNSPEPQKAVEQEDELSDVSQGGSKATTPASTANSDVATIPTDTPLKEENEGFVKVTDAPNKSEISKHIEVQVAQETRNVSTGSAENEEKSEVQAIIESTPELDMDKDLSGYKGSSTPTKGIENKAFDRNTESLFEELSSAGSGLIGDVDEGADLLGMGREVENLILENTQLLETKNALNIVKNDLIAKVDELTCEKDVLQGELEAVKQAKLKLEEKNRELEEELRKARAEAEDARQKAKDDDDSDIPTAQRKRFTRVEMARVLMERNQYKERLMELQEAVRWTEMIRASRENPAMQEKKRSSIWQFFSRLFSSSSNTTKKPEPPVNLKYNAPTSHVTPSVKKRSSTLSQLPGDKSKAFDFLSEETEASLASRREQKREQYRQVKAHVQKEDGRVQAFGWSLPQKYKQVTNGQGENKMKNLPVPVYLRPLDEKDTSMKLWCAVGVNLSGGKTRDGGSVVGASVFYKDVAGLDTEGSKQRSASQSSLDKLDQELKEQQKELKNQEELSSLVWICTSTHSATKVLIIDAVQPGNILDSFTVCNSHVLCIASVPGARETDYPAGEDLSESGQVDKASLCGSMTSNSSAETDSLLGGITVVGCSAEGVTGAATSPSTNGASPVMDKPPEMEAENSEVDENVPTAEEATEATEGNAGSAEDTVDISQTGVYTEHVFTDPLGVQIPEDLSPVYQSSNDSDAYKDQISVLPNEQDLVREEAQKMSSLLPTMWLGAQNGCLYVHSSVAQWRKCLHSIKLKDSILSIVHVKGIVLVALADGTLAIFHRGVDGQWDLSNYHLLDLGRPHHSIRCMTVVHDKVWCGYRNKIYVVQPKAMKIEKSFDAHPRKESQVRQLAWVGDGVWVSIRLDSTLRLYHAHTYQHLQDVDIEPYVSKMLGTGKLGFSFVRITALMVSCNRLWVGTGNGVIISIPLTETNKTSGVPGNRPGSVIRVYGDENSDKVTPGTFIPYCSMAHAQLCFHGHRDAVKFFVAVPGQVISPQSSSSGTDLTGDKAGPSAQEPGSQTPLKSMLVISGGEGYIDFRMGDEGGESELLGEDLPLEPSVTKAERSHLIVWQVMYGNE
B4: MAGE-A1l (protein, UniProt P43364 1-429, looked up)
Melanoma-associated antigen 11: METQFRRGGLGCSPASIKRKKKREDSGDFGLQVSTMFSEDDFQSTERAPYGPQLQWSQDLPRVQVFREQANLEDRSPRRTQRITGGEQVLWGPITQIFPTVRPADLTRVIMPLEQRSQHCKPEEGLQAQEEDLGLVGAQALQAEEQEAAFFSSTLNVGTLEELPAAESPSPPQSPQEESFSPTAMDAIFGSLSDEGSGSQEKEGPSTSPDLIDPESFSQDILHDKIIDLVHLLLRKYRVKGLITKAEMLGSVIKNYEDYFPEIFREASVCMQLLFGIDVKEVDPTSHSYVLVTSLNLSYDGIQCNEQSMPKSGLLIIVLGVIFMEGNCIPEEVMWEVLSIMGVYAGREHFLFGEPKRLLTQNWVQEKYLVYRQVPGTDPACYEFLWGPRAHAETSKMKVLEYIANANGRDPTSYPSLYEDALREEGEGV
B5: PIWIL2 (protein, UniProt Q8TC59 1-973, looked up)
Piwi-like protein 2: MDPFRPSFRGQSPIHPSQCQAVRMPGCWPQASKPLDPALGRGAPAGRGHVFGKPEEPSTQRGPAQRESVGLVSMFRGLGIETVSKTPLKREMLPSGRGILGRGLSANLVRKDREELSPTFWDPKVLAAGDSKMAETSVGWSRTLGRGSSDASLLPLGRAAGGISREVDKPPCTFSTPSRGPPQLSSPPALPQSPLHSPDRPLVLTVEHKEKELIVKQGSKGTPQSLGLNLVKIQCHNEAVYQYHVTFSPNVECKSMRFGMLKDHQAVTGNVTAFDGSILYLPVKLQQVLELKSQRKTDSAEISIKIQMTKILEPCSDLCIPFYNVVFRRVMKLLDMKLVGRNFYDPTSAMVLQQHRLQIWPGYAASIRRTDGGLFLLADVSHKVIRNDCVLDVMHAIYQQNKEHFQDECTKLLVGNIVITRYNNRTYRIDDVDWNKTPKDSFTMSDGKEITFLEYYSKNYGITVKEEDQPLLIHRPSERQDNHGMLLKGEILLLPELSFMTGIPEKMKKDFRAMKDLAQQINLSPKQHHSALECLLQRIAKNEAATNELMRWGLRLQKDVHKIEGRVLPMERINLKNTSFITSQELNWVKEVTRDPSILTIPMHFWALFYPKRAMDQARELVNMLEKIAGPIGMRMSPPAWVELKDDRIETYVRTIQSTLGAEGKIQMVVCIIMGPRDDLYGAIKKLCCVQSPVPSQVVNVRTIGQPTRLRSVAQKILLQINCKLGGELWGVDIPLKQLMVIGMDVYHDPSRGMRSVVGFVASINLTLTKWYSRVVFQMPHQEIVDSLKLCLVGSLKKFYEVNHCLPEKIVVYRDGVSDGQLKTVANYEIPQLQKCFEAFENYQPKMVVFVVQKKISTNLYLAAPQNFVTPTPGTVVDHTITSCEWVDFYLLAHHVRQGCGIPTHYVCVLNTANLSPDHMQRLTFKLCHMYWNWPGTIRVPAPCKYAHKLAFLSGHILHHEPAIQLCENLFFL
B6: gp100 (protein, UniProt P40967 25-661, looked up)
Melanocyte protein PMEL: KVPRNQDWLGVSRQLRTKAWNRQLYPEWTEAQRLDCWRGGQVSLKVSNDGPTLIGANASFSIALNFPGSQKVLPDGQVIWVNNTIINGSQVWGGQPVYPQETDDACIFPDGGPCPSGSWSQKRSFVYVWKTWGQYWQVLGGPVSGLSIGTGRAMLGTHTMEVTVYHRRGSRSYVPLAHSSSAFTITDQVPFSVSVSQLRALDGGNKHFLRNQPLTFALQLHDPSGYLAEADLSYTWDFGDSSGTLISRALVVTHTYLEPGPVTAQVVLQAAIPLTSCGSSPVPGTTDGHRPTAEAPNTTAGQVPTTEVVGTTPGQAPTAEPSGTTSVQVPTTEVISTAPVQMPTAESTGMTPEKVPVSEVMGTTLAEMSTPEATGMTPAEVSIVVLSGTTAAQVTTTEWVETTARELPIPEPEGPDASSIMSTESITGSLGPLLDGTATLRLVKRQVPLDCVLYRYGSFSVTLDIVQGIESAEILQAVPSGEGDAFELTVSCQGGLPKEACMEISSPGCQPPAQRLCQPVLPSPACQLVLHQILKGGSGTYCLNVSLADTNSLAVVSTQLIMPGQEAGLGQVPLIVGILLVLMAVVLASLIYRRRLMKQDFSVPQLPHSSSHWLRLPRIFCSCPIGENSPLLSGQQV

Test system: TSA
[1] = TSA expression rate in MELANOMA
[2] = TSA expression rate in BLADDER cancer
[3] = TSA expression rate in Cervical cancer

Row | Molecule | TSA Expression Rate (ER) (BRAIN) [%] | Expression Rate (ER) % [1] [%] | TSA Expression Rate (ER) (BREAST) [%] | TSA Expression Rate (ER) (LUNG) [%] | TSA Expression Rate (ER) (OVARIAN) [%] | TSA Expression Rate (ER) (THYROID) [%] | Expression Rate (ER) % [2] [%] | Expression Rate (ER) % (TSA expression rate in CRC) [%] | Expression Rate (ER) % [3] [%] | Expression Rate (ER) % (TSA expression rate in Kidney) [%] | further results
1 | B1 | 60 | 0 | – | – | – | – | – | – | – | – | Expression Rate (ER) % (TSA expression rate in HEAD and NECK): 12%
2 | B2 | – | – | 60 | – | – | – | – | – | – | – | –
3 | B3 | 60 | – | 88 | 56 | 90 | 78 | 81 | 71 | 82 | 88 | TSA Expression Rate (ER) (HCC): 52%; Expression Rate (ER) % (TSA expression rate in LEUKEMIAS): 100%
4 | B4 | 85 | – | – | – | – | – | – | – | – | – | –
5 | B5 | 64 | – | 94 | 66 | 61 | 88 | 82 | 80 | 100 | 49 | Expression Rate (ER) % (TSA expression rate in PROSTATE cancer): 100%
6 | B6 | 85 | 82 | – | – | – | – | – | – | – | – | –
